Measured values from publication PMC8512545, “Chitinase Chit62J4 Essential for Chitin Processing by Human Microbiome Bacterium Clostridium paraputrificum J4” (Molecules, 2021).

Test system: CC(=O)N[C@H]1[C@H](Oc2ccc([N+](=O)[O-])cc2)O[C@H](CO)[C@@H](O[C@@H]2O[C@H](CO)[C@@H](O)[C@H](O)[C@H]2NC(C)=O)[C@@H]1O
Assay: purified protein
Assay type: biochemical, Clostridium paraputrificum
Settings: 0.1 M citric acid-potassium phosphate pH 5.5, 37 °C

“crChit62J4 (crude/isolated Chit62J4) (Clostridium paraputrificum)” was tested, and the Km (native enzyme) was 570 µM and the kcat (native enzyme) was 13.5 s⁻¹.

rChit62J4 (Clostridium paraputrificum) gave a Km (no added compound) of 240 ± 20 µM and a kcat (no added compound) of 31.5 ± 0.9 s⁻¹.

Substance “rChit62J4cat (Clostridium paraputrificum)” has a Km (no added compound) of 190 ± 20 µM and a kcat (no added compound) of 31.4 ± 0.8 s⁻¹.
